The test system of one series is MCF7. The series can be described thus: percentage of EdU-negative (G0-arrested) nuclei per well, 72 h; higher = more G0 arrest. The following applies: reference: sequence is the full UniProt precursor, the tested protein was the secreted form or ectodomain.
In the next series the test system is hTERT-HMEC. Described as above. The following applies: reference: sequence is the full UniProt precursor, the tested protein was the secreted form or ectodomain.
The mark [1] stands for this setting: protein concentration 0.0225 µM.
Where [2] appears, read: protein concentration 0.0257143 µM.
[3] abbreviates: protein concentration 0.257143 µM.
Where [4] appears, read: protein concentration 0.01575 µM.
The mark [5] stands for this setting: protein concentration 0.1575 µM.
[6] abbreviates: protein concentration 0.02103 µM.
Setting [7] is: protein concentration 0.2103 µM.
[8] abbreviates: protein concentration 0.0082175 µM.
Setting [9] is: protein concentration 0.01138 µM.
Where [10] appears, read: protein concentration 0.082175 µM.
The mark [11] stands for this setting: protein concentration 0.1138 µM.
The mark [12] stands for this setting: protein concentration 0.03125 µM.
[13] abbreviates: protein concentration 0.3125 µM.
Setting [14] is: protein concentration 0.0284075 µM.
Setting [15] is: protein concentration 0.284075 µM.

± gives the standard deviation of the averaged measurements.
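Further: secreted proteins added to cultured cells, EdU pulse at the end, nuclei found by Hoechst imaging, EdU status from nuclear versus surrounding ring intensity ratio, PBS as neutral control.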

For “MRTADREARPGLPSLLLLLLAGAGLSAASPPAAPRFNVSLDSVPELRWLPVLRHYDLDLVRAAMAQVIGDRVPKWVHVLIGKVVLELERFLPQPFTGEIRGMCDFMNLSLADCLLVNLAYESSVFCTSIVAQDSRGHIYHGRNLDYPFGNVLRKLTVDVQFLKNGQIAFTGTTFIGYVGLWTGQSPHKFTVSGDERDKGWWWENAIAALFRRHIPVSWLIRATLSESENFEAAVGKLAKTPLIADVYYIVGGTSPREGVVITRNRDGPADIWPLDPLNGAWFRVETNYDHWKPAPKEDDRRTSAIKALNATGQANLSLEALFQILSVVPVYNNFTIYTTVMSAGSPDKYMTRIRNPSRK”, the “percentage of EdU-negative” value worked out at 25.7 ± 0.36% with MCF7 (setting [1]), 29.2 ± 3.5% in the series with MCF7 (protein concentration 0.225 µM), 5.28 ± 0.13% in the series on hTERT-HMEC (setting [1]) and 7.812 ± 0.044% in the series with hTERT-HMEC (protein concentration 0.225 µM).

Regarding “MRTIAILAAILLVALQAQAESLQERADEATTQKQSGEDNQDLAISFAGNGLSALRTSGSQARATCYCRTGRCATRESLSGVCEISGRLYRLCCR”, the “percentage of EdU-negative” value with MCF7 (setting [1]) is 27.1 ± 0.85%; in the series with MCF7 (protein concentration 0.225 µM) it was 25.5 ± 1.3%; with hTERT-HMEC (setting [1]), 4.85 ± 0.56%; with hTERT-HMEC (protein concentration 0.225 µM) it was 5.716 ± 0.019%.

“MRTLTILTAVLLVALQAKAEPLQAEDDPLQAKAYEADAQEQRGANDQDFAVSFAEDASSSLRALGSTRAFTCHCRRSCYSTEYSYGTCTVMGINHRFCCL”: the “percentage of EdU-negative” value in the series with MCF7 (setting [1]) was 26.4 ± 0.96%; in the series with MCF7 (protein concentration 0.225 µM) it was 26.4 ± 0.12%; with hTERT-HMEC (setting [1]) it was 4.63 ± 0.29%; with hTERT-HMEC (protein concentration 0.225 µM), 5.921 ± 0.038%.

For “MRTQSLLLLGALLAVGSQLPAVFGRKKGEKSGGCPPDDGPCLLSVPDQCVEDSQCPLTRKCCYRACFRQCVPRVSVKLGSCPEDQLRCLSPMNHLCHKDSDCSGKKRCCHSACGRDCRDPARGTAPGCPGQANSDLGSVALHLSWGPTERVHDGRPGALPAGQHYLYQRWFQPSDNHWPADTSLQPIHPWFLLLGVKVHSLSSEEGLCITPVLCTTAIRASHPS [Q8TCV5]”, the “percentage of EdU-negative” value in the series on MCF7 (setting [2]) worked out at 23.5 ± 0.78%; in the series on MCF7 (setting [3]), 28.7 ± 0.3%; with hTERT-HMEC (setting [2]), 5.766 ± 0.04%; in the series on hTERT-HMEC (setting [3]), 5.25 ± 1.3%.

Regarding “MRTVVLTMKASVIEMFLVLLVTGVHSNKETAKKIKRPKFTVPQINCDVKAGKIIDPEFIVKCPAGCQDPKYHVYGTDVYASYSSVCGAAVHSGVLDNSGGKILVRKVAGQSGYKGSYSNGVQSLSLPRWRESFIVLESKPKKGVTYPSALTYSSSKSPAAQAGETTKAYQRPPIPGTTAQPVTLMQLLAVTVAVATPTTLPRPSPSAASTTSIPRPQSVGHRSQEMDLWSTATYTSSQNRPRADPGIQRQDPSGAAFQKPVGADVSLGLVPKEELSTQSLEPVSLGDPNCKIDLSFLIDGSTSIGKRRFRIQKQLLADVAQALDIGPAGPLMGVVQYGDNPATHFNLKTHTNSRDLKTAIEKITQRGGLSNVGRAISFVTKNFFSKANGNRSGAPNVVVVMVDGWPTDKVEEASRLARESGINIFFITIEGAAENEKQYVVEPNFANKAVCRTNGFYSLHVQSWFGLHKTLQPLVKRVCDTDRLACSKTCLNSADIGFVIDGSSSVGTGNFRTVLQFVTNLTKEFEISDTDTRIGAVQYTYEQRLEFGFDKYSSKPDILNAIKRVGYWSGGTSTGAAINFALEQLFKKSKPNKRKLMILITDGRSYDDVRIPAMAAHLKGVITYAIGVAWAAQEELEVIATHPARDHSFFVDEFDNLHQYVPRIIQNICTEFNSQPRN [Q6UXI7]”, the “percentage of EdU-negative” value in the series on MCF7 (setting [4]) turned out to be 27 ± 0.45%; with MCF7 (setting [5]), 23.4 ± 0.87%; with hTERT-HMEC (setting [4]), 5.15 ± 0.69%; with hTERT-HMEC (setting [5]), 6.71 ± 1.1%.

Turning to “MRVAGAAKLVVAVAVFLLTFYVISQVFEIKMDASLGNLFARSALDTAARSTKPPRYKCGISKACPEKHFAFKMASGAANVVGPKICLEDNVLMSGVKNNVGRGINVALANGKTGEVLDTKYFDMWGGDVAPFIEFLKAIQDGTIVLMGTYDDGATKLNDEARRLIADLGSTSITNLGFRDNWVFCGGKGIKTKSPFEQHIKNNKDTNKYEGWPEVVEMEGCIPQKQD”, the “percentage of EdU-negative” value in the series with MCF7 (setting [6]) was found to be 25.3 ± 0.58%; in the series on MCF7 (setting [7]) it was 24.9 ± 1.8%; in the series on hTERT-HMEC (setting [6]), 4.78 ± 1.5%; with hTERT-HMEC (setting [7]) it was 5.17 ± 1.7%.

“MRVLGGRCGALLACLLLVLPVSEANFLSKQQASQVLVRKRRANSLLEETKQGNLERECIEELCNKEEAREVFENDPETDYFYPKYLVCLRSFQTGLFTAARQSTNAYPDLRSCVNAIPDQCSPLPCNEDGYMSCKDGKASFTCTCKPGWQGEKCEFDINECKDPSNINGGCSQICDNTPGSYHCSCKNGFVMLSNKKDCKDVDECSLKPSICGTAVCKNIPGDFECECPEGYRYNLKSKSCEDIDECSENMCAQLCVNYPGGYTCYCDGKKGFKLAQDQKSCEVVSVCLPLNLDTKYELLYLAEQFAGVVLYLKFRLPEISRFSAEFDFRTYDSEGVILYAESIDHSAWLLIALRGGKIEVQLKNEHTSKITTGGDVINNGLWNMVSVEELEHSISIKIAKEAVMDINKPGPLFKPENGLLETKVYFAGFPRKVESELIKPINPRLDGCIRSWNLMKQGASGIKEIIQEKQNKHCLVTVEKGSYYPGSGIAQFHIDYNNVSSAEGWHVNVTLNIRPSTGTGVMLALVSGNNTVPFAVSLVDSTSEKSQDILLSVENTVIYRIQALSLCSDQQSHLEFRVNRNNLELSTPLKIETISHEDLQRQLAVLDKAMKAKVATYLGGLPDVPFSATPVNAFYNGCMEVNINGVQLDLDEAISKHNDIRAHSCPSVWKKTKNS”: the “percentage of EdU-negative” value in the series on MCF7 (setting [8]) stood at 25.6 ± 0.65%; in the series with MCF7 (setting [9]) it was 28.4 ± 1.6%; in the series with MCF7 (setting [10]) it was 27.3 ± 4.3%; in the series with MCF7 (setting [11]), 28.2 ± 3.1%; in the series with hTERT-HMEC (setting [8]), 4.46 ± 0.51%; in the series with hTERT-HMEC (setting [9]) it was 4.81 ± 0.94%. The entries for the “percentage of EdU-negative” value with hTERT-HMEC (setting [10]) and with hTERT-HMEC (setting [11]) were 7.16 ± 1.3% and 5.79 ± 0.86%, respectively.

For “MRVLLAALGLLFLGALRAFPQDRPFEDTCHGNPSHYYDKAVRRCCYRCPMGLFPTQQCPQRPTDCRKQCEPDYYLDEADRCTACVTCSRDDLVEKTPCAWNSSRVCECRPGMFCSTSAVNSCARCFFHSVCPAGMIVKFPGTAQKNTVCEPASPGVSPACASPENCKEPSSGTIPQAKPTPVSPATSSASTMPVRGGTRLAQEAASKLTRAPDSPSSVGRPSSDPGLSPTQPCPEGSGDCRKQCEPDYYLDEAGRCTACVSCSRDDLVEKTPCAWNSSRTCECRPGMICATSATNSCARCVPYPICAAETVTKPQDMAEKDTTFEAPPLGTQPDCNPTPENGEAPASTSPTQSLLVDSQASKTLPIPTSAPVALSSTGKPVLDAGPVLFWVILVLVVVVGSSAFLLCHRRACRKRIRQKLHLCYPVQTSQPKLELVDSRPRRSSTQLRSGASVTEPVAEERGLMSQPLMETCHSVGAAYLESLPLQDASPAGGPSSPRDLPEPRVSTEHTNNKIEKIYIMKADTVIVGTVKAELPEGRGLAGPAEPELEEELEADHTPHYPEQETEPPLGSCSDVMLSVEEEGKEDPLPTAASGK”, the “percentage of EdU-negative” value turned out to be 24 ± 2.9% in the series on MCF7 (setting [12]), 24 ± 0.5% in the series on MCF7 (setting [13]), 5.63 ± 0.33% in the series on hTERT-HMEC (setting [12]) and 5.66 ± 0.2% with hTERT-HMEC (setting [13]).

Take “MRVSGVLRLLALIFAIVTTWMFIRSYMSFSMKTIRLPRWLAASPTKEIQVKKYKCGLIKPCPANYFAFKICSGAANVVGPTMCFEDRMIMSPVKNNVGRGLNIALVNGTTGAVLGQKAFDMYSGDVMHLVKFLKEIPGGALVLVASYDDPGTKMNDESRKLFSDLGSSYAKQLGFRDSWVFIGAKDLRGKSPFEQFLKNSPDTNKYEGWPELLEMEGCMPPKPF [Q96BQ1]”: the “percentage of EdU-negative” value in the series on MCF7 (setting [14]) was 27.2 ± 0.94%; in the series on MCF7 (setting [15]) it was 26.6 ± 1.5%; with hTERT-HMEC (setting [14]), 5 ± 0.84%; in the series with hTERT-HMEC (setting [15]), 6.345 ± 0.041%.

In the case of “MRWCLLLIWAQGLRQAPLASGMMTGTIETTGNISAEKGGSIILQCHLSSTTAQVTQVNWEQQDQLLAICNADLGWHISPSFKDRVAPGPGLGLTLQSLTVNDTGEYFCIYHTYPDGTYTGRIFLEVLESSVAEHGARFQIPLLGAMAATLVVICTAVIVVVALTRKKKALRIHSVEGDLRRKSAGQEEWSPSAPSPPGSCVQAEAAPAGLCGEQRGEDCAELHDYFNVLSYRSLGNCSFFTETG [Q495A1]”, the “percentage of EdU-negative” value with MCF7 (setting [1]) was found to be 23.6 ± 1.6%; in the series on MCF7 (protein concentration 0.225 µM), 24.1 ± 1.1%; in the series with hTERT-HMEC (setting [1]), 4.33 ± 0.49%; with hTERT-HMEC (protein concentration 0.225 µM), 5.59 ± 0.47%.

In the case of “MRWILFIGALIGSSICGQEKFFGDQVLRINVRNGDEISKLSQLVNSNNLKLNFWKSPSSFNRPVDVLVPSVSLQAFKSFLRSQGLEYAVTIEDLQALLDNEDDEMQHNEGQERSSNNFNYGAYHSLEAIYHEMDNIAADFPDLARRVKIGHSFENRPMYVLKFSTGKGVRRPAVWLNAGIHSREWISQATAIWTARKIVSDYQRDPAITSILEKMDIFLLPVANPDGYVYTQTQNRLWRKTRSRNPGSSCIGADPNRNWNASFAGKGASDNPCSEVYHGPHANSEVEVKSVVDFIQKHGNFKGFIDLHSYSQLLMYPYGYSVKKAPDAEELDKVARLAAKALASVSGTEYQVGPTCTTVYPASGSSIDWAYDNGIKFAFTFELRDTGTYGFLLPANQIIPTAEETWLGLKTIMEHVRDNLY [Q9UI42]”, the “percentage of EdU-negative” value is 26.3 ± 1.7% in the series with MCF7 (setting [1]), 29.1 ± 1.7% in the series on MCF7 (protein concentration 0.225 µM), 5.99 ± 0.71% in the series on hTERT-HMEC (setting [1]) and 5.12 ± 0.8% in the series with hTERT-HMEC (protein concentration 0.225 µM).

As to “MRWRTILLQYCFLLITCLLTALEAVPIDIDKTKVQNIHPVESAKIEPPDTGLYYDEYLKQVIDVLETDKHFREKLQKADIEEIKSGRLSKELDLVSHHVRTKLDELKRQEVGRLRMLIKAKLDSLQDIGMDHQALLKQFDHLNHLNPDKFESTDLDMLIKAATSDLEHYDKTRHEEFKKYEMMKEHERREYLKTLNEEKRKEEESKFEEMKKKHENHPKVNHPGSKDQLKEVWEETDGLDPNDFDPKTFFKLHDVNSDGFLDEQELEALFTKELEKVYDPKNEEDDMVEMEEERLRMREHVMNEVDTNKDRLVTLEEFLKATEKKEFLEPDSWETLDQQQFFTEEELKEYENIIALQENELKKKADELQKQKEELQRQHDQLEAQKLEYHQVIQQMEQKKLQQGIPPSGPAGELKFEPHI”, the “percentage of EdU-negative” value in the series on MCF7 (setting [1]) is 24 ± 0.28%; in the series with MCF7 (protein concentration 0.225 µM), 26 ± 1.5%; in the series on hTERT-HMEC (setting [1]), 5.36 ± 0.7%; in the series on hTERT-HMEC (protein concentration 0.225 µM), 5.32 ± 1.9%.

For the origin of these results see the supplement of paper PMC11316812.
